Source: paper PMC9482650, “Quantitative fragmentomics allow affinity mapping of interactomes” (Nature Communications, 2022)

T1: APBA1_2, Q02410
T1 sequence (Q02410 742-832, limits assumed, looked up): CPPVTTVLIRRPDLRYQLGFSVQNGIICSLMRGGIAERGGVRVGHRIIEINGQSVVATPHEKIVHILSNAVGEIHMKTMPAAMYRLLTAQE


molecular target: T1, APBA1_2, Q02410; assay: holdup assay; design: key: below the threshold = too weak to quantify, mostly under pKd 3.1 to 4; settings: modified: phospho on T at position -2 from the C-terminal residue

Binder	pKd
RLQRRRETQV [HPV18-E6_-2P, P06463]	below the threshold

same assay, conditions: plain residues with an end cap or a label only (N-terminal biotin on a linker: ado-ado)

Binder	pKd
QMNQTLPVQV [EPHB3, P54753]	4.8
RHGSCVETSL [TMEM151B, Q8IW70]	3.97
SAKVRTVTSV [RASL11B, Q9BPW5]	3.92
LPHPHSTTRV [NLGN2, Q8NFZ4]	below the threshold
SKSNFGSEPL [KIF17, Q9P2E2]	below the threshold
GQEEQVTTRL [TRPC5, Q9UL62]	3.58
PDGQCTVTEV [RNF146, Q9NTX7]	4.32
IPLDGETEEL [MYOZ1, Q9NP98]	below the threshold
KSGKQTMLVV [TRIM29, Q14134;Q14134-2]	below the threshold
GNSVLKSTQF [SLC22A12, Q96S37]	below the threshold
YLEPVLSSEL [ATP2A2, P16615;P16615-3]	below the threshold
PKRSFIESNV [TANC1, Q9C0D5]	3.68
LPHGHSTTRV [NLGN4X, Q8N0W4]	3.54
NHSSSPETTA [TRMT13, Q9NUP7]	below the threshold
SSALYGESDL [ACTN2, P35609]	below the threshold
EVNETDDTKM [KCNJ1, P48048]	below the threshold
DTTVPESEDL [MYOZ2, Q9NPC6]	below the threshold
NLSIEKETKL [ASNSD1, Q9NWL6]	below the threshold
QPCFNKLFPL [LPXN, O60711]	3.63
SKENVQETQI [LRRC4B, Q9NT99]	below the threshold
DDEDRLVIEI [ZNF831, Q5JPB2]	below the threshold
VRNLPESEEL [MYOZ3, Q8TDC0]	below the threshold
VYPNAKVELV [PDLIM4_iso2, P50479;P50479-1]	3.91
PRISRSQSEL [CCDC134, Q9H6E4]	below the threshold
EVEEFPETSV [TRPV3, Q8NET8]	4.33
YYKRPVQEWV [MMP24, Q9Y5R2]	5.02
QGLAERISVL [PRKD2, Q9BZL6]	4.05
QKNRKAQEDL [CES3, Q6UWW8]	below the threshold
QSLNRMEYIV [JAG1, P78504]	below the threshold
PAPSSGKDYV [CLDN1, O95832]	4.09

molecular target: PDZRN4_1, Q6ZMN7; assay: holdup assay; design: key: below the threshold = too weak to quantify, mostly under pKd 3.1 to 4; settings: modified: phospho on T at position -2 from the C-terminal residue
Sequence (Q6ZMN7 213-318): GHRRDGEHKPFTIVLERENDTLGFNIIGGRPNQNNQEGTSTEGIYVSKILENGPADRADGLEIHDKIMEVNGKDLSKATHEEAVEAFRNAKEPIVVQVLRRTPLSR

Binder	pKd
RLQRRRETQV [HPV18-E6_-2P, P06463]	below the threshold

same assay, conditions: plain residues with an end cap or a label only (N-terminal biotin on a linker: ado-ado)

Binder	pKd
QMNQTLPVQV [EPHB3, P54753]	below the threshold
RHGSCVETSL [TMEM151B, Q8IW70]	5.27
SAKVRTVTSV [RASL11B, Q9BPW5]	below the threshold
LPHPHSTTRV [NLGN2, Q8NFZ4]	below the threshold
SKSNFGSEPL [KIF17, Q9P2E2]	below the threshold
GQEEQVTTRL [TRPC5, Q9UL62]	3.64
PDGQCTVTEV [RNF146, Q9NTX7]	below the threshold
IPLDGETEEL [MYOZ1, Q9NP98]	below the threshold
GNSVLKSTQF [SLC22A12, Q96S37]	below the threshold
YLEPVLSSEL [ATP2A2, P16615;P16615-3]	below the threshold
PKRSFIESNV [TANC1, Q9C0D5]	3.82
LPHGHSTTRV [NLGN4X, Q8N0W4]	below the threshold
NHSSSPETTA [TRMT13, Q9NUP7]	below the threshold
SSALYGESDL [ACTN2, P35609]	3.62
EVNETDDTKM [KCNJ1, P48048]	below the threshold
DTTVPESEDL [MYOZ2, Q9NPC6]	below the threshold
NLSIEKETKL [ASNSD1, Q9NWL6]	4.83
QPCFNKLFPL [LPXN, O60711]	below the threshold
SKENVQETQI [LRRC4B, Q9NT99]	4.18
DDEDRLVIEI [ZNF831, Q5JPB2]	below the threshold
VRNLPESEEL [MYOZ3, Q8TDC0]	below the threshold
VYPNAKVELV [PDLIM4_iso2, P50479;P50479-1]	below the threshold
PRISRSQSEL [CCDC134, Q9H6E4]	below the threshold
EVEEFPETSV [TRPV3, Q8NET8]	4.98
YYKRPVQEWV [MMP24, Q9Y5R2]	below the threshold
QGLAERISVL [PRKD2, Q9BZL6]	3.66
QKNRKAQEDL [CES3, Q6UWW8]	below the threshold
QSLNRMEYIV [JAG1, P78504]	below the threshold
PAPSSGKDYV [CLDN1, O95832]	below the threshold

molecular target: DLG2_3, Q15700; assay: holdup assay; design: key: below the threshold = too weak to quantify, mostly under pKd 3.1 to 4; settings: modified: phospho on T at position -2 from the C-terminal residue

Binder	pKd
RLQRRRETQV [HPV18-E6_-2P, P06463]	3.88

same assay, conditions: plain residues with an end cap or a label only (N-terminal biotin on a linker: ado-ado)

Binder	pKd
QMNQTLPVQV [EPHB3, P54753]	below the threshold
RHGSCVETSL [TMEM151B, Q8IW70]	4.19
SAKVRTVTSV [RASL11B, Q9BPW5]	5
LPHPHSTTRV [NLGN2, Q8NFZ4]	4.42
SKSNFGSEPL [KIF17, Q9P2E2]	below the threshold
GQEEQVTTRL [TRPC5, Q9UL62]	below the threshold
PDGQCTVTEV [RNF146, Q9NTX7]	3.68
IPLDGETEEL [MYOZ1, Q9NP98]	below the threshold
KSGKQTMLVV [TRIM29, Q14134;Q14134-2]	below the threshold
GNSVLKSTQF [SLC22A12, Q96S37]	3.74
PKRSFIESNV [TANC1, Q9C0D5]	4.28
LPHGHSTTRV [NLGN4X, Q8N0W4]	4.42
NHSSSPETTA [TRMT13, Q9NUP7]	3.67
SSALYGESDL [ACTN2, P35609]	3.94
EVNETDDTKM [KCNJ1, P48048]	below the threshold
DTTVPESEDL [MYOZ2, Q9NPC6]	below the threshold
NLSIEKETKL [ASNSD1, Q9NWL6]	3.77
QPCFNKLFPL [LPXN, O60711]	below the threshold
SKENVQETQI [LRRC4B, Q9NT99]	4.17
DDEDRLVIEI [ZNF831, Q5JPB2]	3.65
VRNLPESEEL [MYOZ3, Q8TDC0]	below the threshold
VYPNAKVELV [PDLIM4_iso2, P50479;P50479-1]	below the threshold
PRISRSQSEL [CCDC134, Q9H6E4]	3.63
EVEEFPETSV [TRPV3, Q8NET8]	4.41
YYKRPVQEWV [MMP24, Q9Y5R2]	3.7
QGLAERISVL [PRKD2, Q9BZL6]	below the threshold
QKNRKAQEDL [CES3, Q6UWW8]	3.65
QSLNRMEYIV [JAG1, P78504]	3.96
PAPSSGKDYV [CLDN1, O95832]	below the threshold

molecular target: NHERF2_2, Q15599; assay: holdup assay; design: key: below the threshold = too weak to quantify, mostly under pKd 3.1 to 4; settings: modified: phospho on T at position -2 from the C-terminal residue
Sequence (Q15599 142-238): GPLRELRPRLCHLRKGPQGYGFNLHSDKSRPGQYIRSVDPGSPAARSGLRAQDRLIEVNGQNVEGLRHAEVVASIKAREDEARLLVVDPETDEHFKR

Binder	pKd
RLQRRRETQV [HPV18-E6_-2P, P06463]	below the threshold

same assay, conditions: plain residues with an end cap or a label only (N-terminal biotin on a linker: ado-ado)

Binder	pKd
QMNQTLPVQV [EPHB3, P54753]	3.51
RHGSCVETSL [TMEM151B, Q8IW70]	4.75
SAKVRTVTSV [RASL11B, Q9BPW5]	below the threshold
LPHPHSTTRV [NLGN2, Q8NFZ4]	3.75
SKSNFGSEPL [KIF17, Q9P2E2]	below the threshold
GQEEQVTTRL [TRPC5, Q9UL62]	4.71
PDGQCTVTEV [RNF146, Q9NTX7]	3.89
IPLDGETEEL [MYOZ1, Q9NP98]	3.96
KSGKQTMLVV [TRIM29, Q14134;Q14134-2]	below the threshold
GNSVLKSTQF [SLC22A12, Q96S37]	4.47
YLEPVLSSEL [ATP2A2, P16615;P16615-3]	4.46
PKRSFIESNV [TANC1, Q9C0D5]	below the threshold
LPHGHSTTRV [NLGN4X, Q8N0W4]	3.78
NHSSSPETTA [TRMT13, Q9NUP7]	below the threshold
SSALYGESDL [ACTN2, P35609]	4.35
EVNETDDTKM [KCNJ1, P48048]	4.84
DTTVPESEDL [MYOZ2, Q9NPC6]	4.27
NLSIEKETKL [ASNSD1, Q9NWL6]	4.76
QPCFNKLFPL [LPXN, O60711]	below the threshold
SKENVQETQI [LRRC4B, Q9NT99]	3.88
DDEDRLVIEI [ZNF831, Q5JPB2]	below the threshold
VRNLPESEEL [MYOZ3, Q8TDC0]	3.64
VYPNAKVELV [PDLIM4_iso2, P50479;P50479-1]	below the threshold
PRISRSQSEL [CCDC134, Q9H6E4]	below the threshold
EVEEFPETSV [TRPV3, Q8NET8]	3.72
YYKRPVQEWV [MMP24, Q9Y5R2]	below the threshold
QGLAERISVL [PRKD2, Q9BZL6]	4.5
QKNRKAQEDL [CES3, Q6UWW8]	below the threshold
QSLNRMEYIV [JAG1, P78504]	below the threshold
PAPSSGKDYV [CLDN1, O95832]	below the threshold
